Assay results reported in patent publication US20250262210A1 (TRUSTEES OF COLUMBIA UNIVERSITY IN THE CITY OF NEW YORK, published 2025).

Columns and labels:
Test in all cases: IP/MS, LZTR1 R810W-FLAG, U87
[1] = target: T1, RNF123 (human, UniProt Q5XPI4 2-1314, limits assumed)
T1 sequence (looked up): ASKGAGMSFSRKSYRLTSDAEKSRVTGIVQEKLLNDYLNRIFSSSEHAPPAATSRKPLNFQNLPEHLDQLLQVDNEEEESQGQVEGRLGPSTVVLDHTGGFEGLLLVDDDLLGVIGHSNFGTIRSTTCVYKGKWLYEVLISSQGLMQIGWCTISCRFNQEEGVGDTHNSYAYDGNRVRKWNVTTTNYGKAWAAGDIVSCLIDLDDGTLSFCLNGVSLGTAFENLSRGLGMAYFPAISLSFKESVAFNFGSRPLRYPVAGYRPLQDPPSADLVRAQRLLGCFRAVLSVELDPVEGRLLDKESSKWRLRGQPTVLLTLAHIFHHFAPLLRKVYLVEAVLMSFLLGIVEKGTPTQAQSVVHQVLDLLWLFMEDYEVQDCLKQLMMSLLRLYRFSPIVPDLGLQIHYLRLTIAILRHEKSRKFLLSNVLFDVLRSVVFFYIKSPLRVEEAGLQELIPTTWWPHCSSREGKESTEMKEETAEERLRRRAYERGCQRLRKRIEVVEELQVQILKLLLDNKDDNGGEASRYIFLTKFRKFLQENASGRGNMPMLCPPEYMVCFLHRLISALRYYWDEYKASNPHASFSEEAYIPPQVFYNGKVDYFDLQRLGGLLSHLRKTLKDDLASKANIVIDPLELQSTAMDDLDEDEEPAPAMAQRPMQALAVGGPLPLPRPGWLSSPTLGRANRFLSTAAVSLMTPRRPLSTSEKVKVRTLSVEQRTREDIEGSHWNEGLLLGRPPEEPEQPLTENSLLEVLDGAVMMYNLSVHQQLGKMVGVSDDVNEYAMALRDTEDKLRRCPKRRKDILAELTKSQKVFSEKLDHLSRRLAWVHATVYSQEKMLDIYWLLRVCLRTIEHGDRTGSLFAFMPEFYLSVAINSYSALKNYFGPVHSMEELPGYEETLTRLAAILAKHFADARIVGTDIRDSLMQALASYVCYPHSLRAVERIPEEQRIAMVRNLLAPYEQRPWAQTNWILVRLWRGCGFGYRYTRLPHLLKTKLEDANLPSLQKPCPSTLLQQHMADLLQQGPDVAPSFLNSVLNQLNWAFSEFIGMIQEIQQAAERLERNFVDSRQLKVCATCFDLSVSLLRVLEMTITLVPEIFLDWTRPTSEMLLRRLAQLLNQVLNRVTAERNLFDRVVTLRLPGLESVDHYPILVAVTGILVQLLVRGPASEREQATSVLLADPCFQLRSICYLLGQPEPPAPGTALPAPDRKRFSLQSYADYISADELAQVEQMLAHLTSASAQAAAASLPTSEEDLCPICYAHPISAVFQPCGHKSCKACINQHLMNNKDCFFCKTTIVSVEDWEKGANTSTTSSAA
Summary of the method: (§1)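 Gel slices were reduced with 5 mM DTT, alkylated with 11 mM IAA and digested overnight at 37° C. with trypsin. Peptides were analysed on an Orbitrap Fusion Tribrid by LC-MS/MS.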

[2] = target: T2, VPS18 (human, UniProt Q9P253 2-973)
T2 sequence (looked up): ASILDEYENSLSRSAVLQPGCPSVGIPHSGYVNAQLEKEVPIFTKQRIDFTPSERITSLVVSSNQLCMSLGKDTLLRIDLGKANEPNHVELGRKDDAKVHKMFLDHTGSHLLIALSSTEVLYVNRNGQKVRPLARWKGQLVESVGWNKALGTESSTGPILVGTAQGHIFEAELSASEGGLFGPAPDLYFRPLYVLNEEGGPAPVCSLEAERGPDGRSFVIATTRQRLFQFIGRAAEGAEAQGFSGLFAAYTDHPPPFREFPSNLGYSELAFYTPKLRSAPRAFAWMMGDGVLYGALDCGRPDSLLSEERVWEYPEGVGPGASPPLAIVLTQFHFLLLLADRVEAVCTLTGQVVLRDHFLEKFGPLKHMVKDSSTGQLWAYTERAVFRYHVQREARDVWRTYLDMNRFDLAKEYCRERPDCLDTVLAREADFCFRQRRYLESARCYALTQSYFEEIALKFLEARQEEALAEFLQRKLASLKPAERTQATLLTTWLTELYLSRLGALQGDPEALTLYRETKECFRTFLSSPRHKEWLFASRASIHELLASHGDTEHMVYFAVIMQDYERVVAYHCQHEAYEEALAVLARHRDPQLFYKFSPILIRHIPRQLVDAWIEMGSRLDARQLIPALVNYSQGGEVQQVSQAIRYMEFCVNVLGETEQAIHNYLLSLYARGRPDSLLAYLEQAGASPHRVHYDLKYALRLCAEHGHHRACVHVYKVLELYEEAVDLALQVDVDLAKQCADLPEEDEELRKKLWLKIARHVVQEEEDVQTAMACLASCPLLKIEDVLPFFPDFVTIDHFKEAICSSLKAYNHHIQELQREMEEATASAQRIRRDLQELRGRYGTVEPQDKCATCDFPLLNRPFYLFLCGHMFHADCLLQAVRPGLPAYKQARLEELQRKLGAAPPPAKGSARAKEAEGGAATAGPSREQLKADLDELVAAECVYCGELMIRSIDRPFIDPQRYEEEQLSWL
Summary of the method: as §1

[3] = target: TTC27 (human, UniProt Q6P3X3 1-843)
Summary of the method: as §1

Measured: binding result

B1: LZTR1 R810W-FLAG (other, human, UniProt Q8N653 1-840, looked up)
chain: MAGPGSTGGQIGAAALAGGARSKVAPSVDFDHSCSDSVEYLTLNFGPFETVHRWRRLPPCDEFVGARRSKHTVVAYKDAIYVFGGDNGKTMLNDLLRFDVKDCSWCRAFTTGTPPAPRYHHSAVVYGSSMFVFGGYTGDIYSNSNLKNKNDLFEYKFATGQWTEWKIEGRLPVARSAHGATVYSDKLWIFAGYDGNARLNDMWTIGLQDRELTCWEEVAQSGEIPPSCCNFPVAVCRDKMFVFSGQSGAKITNNLFQFEFKDKTWTRIPTEHLLRGSPPPPQRRYGHTMVAFDRHLYVFGGAADNTLPNELHCYDVDFQTWEVVQPSSDSEVGGAEVPERACASEEVPTLTYEERVGFKKSRDVFGLDFGTTSAKQPTQPASELPSGRLFHAAAVISDAMYIFGGTVDNNIRSGEMYRFQFSCYPKCTLHEDYGRLWESRQFCDVEFVLGEKEECVQGHVAIVTARSRWLRRKITQARERLAQKLEQEAAPVPREAPGVAAGGARPPLLHVAIREAEARPFEVLMQFLYTDKIKYPRKGHVEDVLLIMDVYKLALSFQLCRLEQLCRQYIEASVDLQNVLVVCESAARLQLSQLKEHCLNFVVKESHFNQVIMMKEFERLSSPLIVEIVRRKQQPPPRTPLDQPVDIGTSLIQDMKAYLEGAGAEFCDITLLLDGHPRPAHKAILAARSSYFEAMFRSFMPEDGQVNISIGEMVPSRQAFESMLRYIYYGEVNMPPEDSLYLFAAPYYYGFYNNRLQAYCKQNLEMNVTVQNVLQILEAADKTQALDMKRHCLHIIVHQFTKVSKLPTLWSLSQQLLLDIIDSLASHISDKQCAELGADI
notes: Stably expressed in U87 cells by lentivirus; also called LZTR1-FLAG-R810W; LZTR1 RW; not shown: FLAG tag
binds: all assays above
